Sequences and labels used below:
B1: HDV Ribozyme (parent)
chain: GGCCGGCAUGGUCCCAGCCUCCUCGCUGGCGCCGGCUGGGCAACAUUCCGAGGGGACCGUCCCCUCGGUAAUGGCGAAUGGGACCCA

In this series the parent is B1. Briefly: self-cleavage, relative activity (ratio to wild type); higher = more cleavage; co-transcriptional.
GGCCGGCAUGGUCGCAGCCUCCUCGCUGGCGCCGGCGGGGCAACAUUCCGAGGGGACCGUCCCCUCGGUAAUGGCGAAUGGGACCCA [C14G U37G]: the self-cleavage came to 0. With GGCCGUCAUGGUCCCAGCCUCCUCGCUGGCGCCGGCUGGGCAACAUUCCGAGGGGACCGUCCCCUCGGUUAUGGCGAAUGGGACCCA [G6U A70U] the figure was 0.46; with GGCCGGCAUGGUCCCAGCCCCCUCGCUGGCGCCGGCUGGGCAACAUUCCGAGGGGACCGUCCCCUCGGUAUUGGCGAAUGGGACCCA [U20C A71U], 0.0898. Take AGCCGGCAUGGUCCCAGCCUCCUUGCUGGCGCCGGCUGGGCAACAUUCCGAGGGGACCGUCCCCUCGGUAAUGGCGAAUGGGACCCA [G1A C24U]: the self-cleavage was 0.111. In the case of GGCCGGCAUGGUCCCAGCCUCCUCGCUGGCGCCGGCUUGGCAACAUUUCGAGGGGACCGUCCCCUCGGUAAUGGCGAAUGGGACCCA [G38U C48U] it was 0.141; in that of GGCCGGCAUGGUCCCAGCCUCCUCGCUGCCGCCGGCUGGGCAACAUUCCGAGCGGACCGUCCCCUCGGUAAUGGCGAAUGGGACCCA [G29C G53C], 0.0462; in that of GGCCGGCAUGGUCCCAGCCUCCUCGCUGGCGCCGGCUGGGCAUCAUUCCGAGGGGACCGUCCCCUCGGUAAUGGCGAAUGGGAGCCA [A43U C84G], 0.146. In the case of GGCCGGCAUGGUCCCAGCUUCCUCGCUGGCGUCGGCUGGGCAACAUUCCGAGGGGACCGUCCCCUCGGUAAUGGCGAAUGGGACCCA [C19U C32U] it was 0.295; in that of GGCCGGCAUGGUCCCAGCCUCGUCGCUGGCGCCGGCCGGGCAACAUUCCGAGGGGACCGUCCCCUCGGUAAUGGCGAAUGGGACCCA [C22G U37C], 0.136; in that of GCCCGGCAUGGUCCCAGCCUCCUCGCGGGCGCCGGCUGGGCAACAUUCCGAGGGGACCGUCCCCUCGGUAAUGGCGAAUGGGACCCA [G2C U27G], 0.0437. With GGCCGGCAUGGUCCCAGCCUCCUCGCUGGCGCCGGCUGGGCAACAUUCCGAGGGGACCGUCCCCUCGGUAAUGCAGAAUGGGACCCA [G74C C75A] the figure was 0.252. Regarding AGCCGGCAUGGUCCCAGCCUCCUCGCUGCCGCCGGCUGGGCAACAUUCCGAGGGGACCGUCCCCUCGGUAAUGGCGAAUGGGACCCA [G1A G29C], the self-cleavage was found to be 0.181. In the case of GGCCGGCAUGGUCCCAGCCUCCUCGCUGGCGCCGGCUGGGCAACAUUCCGACGGGACCGUCCCCUCGGUAAUGGCGAAUGGGGCCCA [G52C A83G] it was 0.683; in that of GGCCGGCAGGGUCCCAGCCUCCUCGCUGGCGCCGACUGGGCAACAUUCCGAGGGGACCGUCCCCUCGGUAAUGGCGAAUGGGACCCA [U9G G35A], 0.782. With GGCCGGCAUGGUCCCAGCCUCCUCGCUGGCGCCGGCUGGGCAACAUUCCGAGGGGACCGUCCCUGCGGUAAUGGCGAAUGGGACCCA [C64U U65G] the figure was 0.784; with GGCCGGCAUGGUCCCAGCCUCCUCGUUGGCGCCGGCUGGGCAACAUUCCGAGUGGACCGUCCCCUCGGUAAUGGCGAAUGGGACCCA [C26U G53U], 1.22; with GGCCGGCAUGGUCCCAGCCUCCUCGCUGGCGCCGGCUGGGCAACAUUCCGACGGGACCGUCCCCUCGGUAAAGGCGAAUGGGACCCA [G52C U72A], 0.872.

With GGCCGGCAUGGUCCGAGCCUCCUCGCUGGCGCCGGCUGGGCAACAUUCCGAGGGGACCGUCCCCUCGGUAAUGCCGAAUGGGACCCA [C15G G74C], the self-cleavage was 0.119. As for GGCCGGCAUGCUCCCAGCCUCCUCGCUGGCGCCGGCUGGGCAACAUUCCGAGGGGACCGCCCCCUCGGUAAUGGCGAAUGGGACCCA [G11C U60C], the self-cleavage is 0.511. With GGCCGGCAUGGUCCCAGCCUCCUCGCUGGCGCCGGCUGGGCAACAGUCCGAGGGGACCGUCCCCUUGGUAAUGGCGAAUGGGACCCA [U46G C66U], the self-cleavage is 0.673. In the case of GGCCGGCAUGGUCCUAGCCUCCUCGCUGGCGCCGGCUGGGCAAAAUUCCGAGGGGACCGUCCCCUCGGUAAUGGCGAAUGGGACCCA [C15U C44A] it was 0.684; in that of GGCCGGCAUGGUCUCAGCCUCCUCGCUGGCGCCGGCUGGGCAACAUCCCGAGGGGACCGUCCCCUCGGUAAUGGCGAAUGGGACCCA [C14U U47C], 1.13; in that of GGCCGGCAUGGUCCCAGCUUCCUCGCUGGCGCCGGCUGGGCAACAUUCCGAGGGGACCGUCCCCUCGGUAAUGGCGAAUGGGACCCG [C19U A87G], 0.107. In the case of GGCCGGCAUGGUCCCAGCCUCCUCGCUUGCGCCGGCUGGGCAACAUUCCGAGGGGACCGUGCCCUCGGUAAUGGCGAAUGGGACCCA [G28U C61G] it was 0.0678.

On to GGCCGGCAUGGUCCCAGCCUCCUCGCUGGCGCCGGCGGGGCAGCAUUCCGAGGGGACCGUCCCCUCGGUAAUGGCGAAUGGGACCCA [U37G A43G], for which the self-cleavage came to 0. With GGCCGGCAUGGUCCCAGCCUCCUCGCUGGCGCCGGCCGGGCAACAUUGCGAGGGGACCGUCCCCUCGGUAAUGGCGAAUGGGACCCA [U37C C48G], the self-cleavage amounted to 1.04. In the case of GGCCGGCAUGGUCCCAGCCUCCUCGCUGGCGCCAGCUGGGCAACAUUCCGAGUGGACCGUCCCCUCGGUAAUGGCGAAUGGGACCCA [G34A G53U] it was 0.17; in that of GGCCGGCAUGGUCCCAGACUCCUCGCUGGCGCCGGCUGGGCAACAUUCCGAGGGGACCGUCCCCUCGGUAAUGGCGAAUGGGUCCCA [C18A A83U], 0.237. In the case of GGCCGGCAUGGUCCCAGCCUCGUCGCUGGCGUCGGCUGGGCAACAUUCCGAGGGGACCGUCCCCUCGGUAAUGGCGAAUGGGACCCA [C22G C32U] it was 0.0707. In the case of GGCCGGCAUGGUCCCAGCCUCCUCGCUGGCGCCGGCUGGGCAACAUUCCGAGGGGACUUUCCCCUCGGUAAUGGCGAAUGGGACCCA [C58U G59U] it was 1.05; in that of GGCCGGCAUGGUCCCAGCCUCCUCGAUGGCGCCGGCUGGGCAACAUUCCGAAGGGACCGUCCCCUCGGUAAUGGCGAAUGGGACCCA [C26A G52A], 1.06. With GGCCGGCAUGGUCCCAGCCUCCUCGCUGGCGCCGGCUGGGCUACAUUCCGAGGGGACCGUCCCCUCGUUAAUGGCGAAUGGGACCCA [A42U G68U], the self-cleavage was found to be 0.162.
